Experimental data taken from the supplement of paper PMC10567573.

B1: DLC1 (parent)
chain: AEVVKIRDSFSNQNTETKDTKSR

Variants of: B1
Experiment: protein stability index of a GFP-peptide fusion (GPS, HEK-293T) (PSI 1-6); higher = more stable
Conditions: c terminus: native
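Further: lentivirally expressed fusions sorted by FACS into six bins by GFP to DsRed ratio, PSI derived from sequencing read proportions per bin multiplied by bin number.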

Question: With AEVVKIRDSFSNQNTEYKDTKSR as the variant, how does the protein stability index read?
Answer: 2.31

Question: Which protein stability index does the source give for AEVVKIRDSFSNQNTEMKDTKSR here?
Answer: 2.68

Question: For AEVVKIRDSFSNQNTEWKDTKSR, which protein stability index is on record?
Answer: 3.5

Question: For AEVVKIRDSFSNQNTELKDTKSR, which protein stability index is on record?
Answer: 2.34

Question: With AEVVKIRDSFSNQNTEHKDTKSR as the variant, how does the protein stability index read?
Answer: 1.73

Question: For AEVVKIRDSFSNQNTEVKDTKSR, which protein stability index is on record?
Answer: 1.26

Question: With AEVVKIRDSFSNQNTECKDTKSR as the variant, how does the protein stability index read?
Answer: 2.11

Question: For AEVVKIRDSFSNQNTERKDTKSR, which protein stability index is on record?
Answer: 1.84

Question: Which protein stability index does the source give for AEVVKIRDSFSNQNTEPKDTKSR here?
Answer: 2.97

Question: With AEVVKIRDSFSNFNTETKDTKSR as the variant, how does the protein stability index read?
Answer: 2.26

Question: For AEVVKIRDSFDNQNTETKDTKSR, which protein stability index is on record?
Answer: 2.05

Question: Which protein stability index does the source give for AEVVKIRDSFGNQNTETKDTKSR here?
Answer: 2.36

Question: For AEVVKIRDSFANQNTETKDTKSR, which protein stability index is on record?
Answer: 1.9

Question: With AEVVKIRDSFYNQNTETKDTKSR as the variant, how does the protein stability index read?
Answer: 2.65

Question: Which protein stability index does the source give for AEVVKIRDSFENQNTETKDTKSR here?
Answer: 2.4

Question: With AEVVKIRDSFFNQNTETKDTKSR as the variant, how does the protein stability index read?
Answer: 2.85

Question: For AEVVKIRDSFRNQNTETKDTKSR, which protein stability index is on record?
Answer: 2.78

Question: With AEVVCIRDSFSNQNTETKDTKSR as the variant, how does the protein stability index read?
Answer: 2.88

Question: Which protein stability index does the source give for AEVVPIRDSFSNQNTETKDTKSR here?
Answer: 2.67

Question: With AEVVEIRDSFSNQNTETKDTKSR as the variant, how does the protein stability index read?
Answer: 3.01

Question: For AEVVIIRDSFSNQNTETKDTKSR, which protein stability index is on record?
Answer: 2.02

Question: For AEVVHIRDSFSNQNTETKDTKSR, which protein stability index is on record?
Answer: 2.58

Question: For AEVVNIRDSFSNQNTETKDTKSR, which protein stability index is on record?
Answer: 2.93

Question: For AEVVAIRDSFSNQNTETKDTKSR, which protein stability index is on record?
Answer: 2

Question: Which protein stability index does the source give for AGVVKIRDSFSNQNTETKDTKSR here?
Answer: 1.95

Question: For AMVVKIRDSFSNQNTETKDTKSR, which protein stability index is on record?
Answer: 1.63

Question: For ALVVKIRDSFSNQNTETKDTKSR, which protein stability index is on record?
Answer: 1.03

Question: For AVVVKIRDSFSNQNTETKDTKSR, which protein stability index is on record?
Answer: 1.7

Question: Which protein stability index does the source give for AEVVKIRDSFSNQNTQTKDTKSR here?
Answer: 3.17

Question: For AEVVKIRDSFSNQNTRTKDTKSR, which protein stability index is on record?
Answer: 2.31

Question: For AEVVKIRDSFSNQNTPTKDTKSR, which protein stability index is on record?
Answer: 2.41

Question: With AEVVKIRDSFSNQNTYTKDTKSR as the variant, how does the protein stability index read?
Answer: 1.31

Question: Which protein stability index does the source give for AEVVKIRDSFSNQNTKTKDTKSR here?
Answer: 3.12

Question: With AEVWKIRDSFSNQNTETKDTKSR as the variant, how does the protein stability index read?
Answer: 2.05

Question: For AEVDKIRDSFSNQNTETKDTKSR, which protein stability index is on record?
Answer: 3.04

Question: With AEVLKIRDSFSNQNTETKDTKSR as the variant, how does the protein stability index read?
Answer: 4.87

Question: Which protein stability index does the source give for AEVKKIRDSFSNQNTETKDTKSR here?
Answer: 2.3

Question: With AEVYKIRDSFSNQNTETKDTKSR as the variant, how does the protein stability index read?
Answer: 2.76

Question: With AEVSKIRDSFSNQNTETKDTKSR as the variant, how does the protein stability index read?
Answer: 2.12

Question: For AEVQKIRDSFSNQNTETKDTKSR, which protein stability index is on record?
Answer: 2.81

Question: For AEVMKIRDSFSNQNTETKDTKSR, which protein stability index is on record?
Answer: 2.05

Question: For AEVVKIRDSFSNQNTETKDIKSR, which protein stability index is on record?
Answer: 2.7

Question: Which protein stability index does the source give for AEVVKIRDSFSNQNTETKDYKSR here?
Answer: 2.1

Question: For AEVVKIRDSFSNQNTETKDTKSW, which protein stability index is on record?
Answer: 3.23

Question: With AEVVKIRDSFSNQNTETKDTKSH as the variant, how does the protein stability index read?
Answer: 5.37

Question: For AEFVKIRDSFSNQNTETKDTKSR, which protein stability index is on record?
Answer: 2.09

Question: Which protein stability index does the source give for AESVKIRDSFSNQNTETKDTKSR here?
Answer: 1.95

Question: With AEEVKIRDSFSNQNTETKDTKSR as the variant, how does the protein stability index read?
Answer: 2.12

Question: For AENVKIRDSFSNQNTETKDTKSR, which protein stability index is on record?
Answer: 3

Question: With AEAVKIRDSFSNQNTETKDTKSR as the variant, how does the protein stability index read?
Answer: 2.24

Question: For AEDVKIRDSFSNQNTETKDTKSR, which protein stability index is on record?
Answer: 3.54

Question: With AEQVKIRDSFSNQNTETKDTKSR as the variant, how does the protein stability index read?
Answer: 2.47

Question: Which protein stability index does the source give for CEVVKIRDSFSNQNTETKDTKSR here?
Answer: 2.19

Question: Which protein stability index does the source give for KEVVKIRDSFSNQNTETKDTKSR here?
Answer: 3.16

Question: For NEVVKIRDSFSNQNTETKDTKSR, which protein stability index is on record?
Answer: 3.03

Question: With WEVVKIRDSFSNQNTETKDTKSR as the variant, how does the protein stability index read?
Answer: 2.76

Question: With YEVVKIRDSFSNQNTETKDTKSR as the variant, how does the protein stability index read?
Answer: 1.79

Question: For TEVVKIRDSFSNQNTETKDTKSR, which protein stability index is on record?
Answer: 2.08

Question: With VEVVKIRDSFSNQNTETKDTKSR as the variant, how does the protein stability index read?
Answer: 1.92

Question: With AEVVKTRDSFSNQNTETKDTKSR as the variant, how does the protein stability index read?
Answer: 3.6

Question: For AEVVKQRDSFSNQNTETKDTKSR, which protein stability index is on record?
Answer: 2.67

Question: With AEVVKPRDSFSNQNTETKDTKSR as the variant, how does the protein stability index read?
Answer: 3.4

Question: Which protein stability index does the source give for AEVVKKRDSFSNQNTETKDTKSR here?
Answer: 3.3

Question: For AEVVKLRDSFSNQNTETKDTKSR, which protein stability index is on record?
Answer: 2.74

Question: With AEVVKMRDSFSNQNTETKDTKSR as the variant, how does the protein stability index read?
Answer: 2.64

Question: For AEVVKARDSFSNQNTETKDTKSR, which protein stability index is on record?
Answer: 2.47

Question: Which protein stability index does the source give for AEVVKIRDSFSNQNTETKDTYSR here?
Answer: 3.57

Question: For AEVVKIRDSFSNQNTETKDTESR, which protein stability index is on record?
Answer: 5.2

Question: For AEVVKIRDSFSNQNTETKDTVSR, which protein stability index is on record?
Answer: 4.89

Question: For AEVVKIRDVFSNQNTETKDTKSR, which protein stability index is on record?
Answer: 2.25

Question: Which protein stability index does the source give for AEVVKIRDAFSNQNTETKDTKSR here?
Answer: 2.55

Question: For AEVVKIRDHFSNQNTETKDTKSR, which protein stability index is on record?
Answer: 3.54

Question: With AEVVKIRDSYSNQNTETKDTKSR as the variant, how does the protein stability index read?
Answer: 2.53

Question: Which protein stability index does the source give for AEVVKIRDSKSNQNTETKDTKSR here?
Answer: 4.18

Question: With AEVVKIRDSCSNQNTETKDTKSR as the variant, how does the protein stability index read?
Answer: 2.54

Question: For AEVVKIRDSVSNQNTETKDTKSR, which protein stability index is on record?
Answer: 2.95

Question: Which protein stability index does the source give for AEVVKIRDSFSNQNTETKDTKNR here?
Answer: 2.88

Question: With AEVVKIRDSFSNQNTETKDTKHR as the variant, how does the protein stability index read?
Answer: 3.48

Question: For AEVVKIRDSFSNQNTETKDTKWR, which protein stability index is on record?
Answer: 3.96

Question: With AEVVKIRDSFSNQNTETKDTKGR as the variant, how does the protein stability index read?
Answer: 1.89

Question: For AEVVKIKDSFSNQNTETKDTKSR, which protein stability index is on record?
Answer: 2.88

Question: With AEVVKIWDSFSNQNTETKDTKSR as the variant, how does the protein stability index read?
Answer: 1.69

Question: For AEVVKIPDSFSNQNTETKDTKSR, which protein stability index is on record?
Answer: 3.24

Question: Which protein stability index does the source give for AEVVKILDSFSNQNTETKDTKSR here?
Answer: 3.01

Question: For AEVVKIHDSFSNQNTETKDTKSR, which protein stability index is on record?
Answer: 2.21

Question: For AEVVKIRDSFSNQNYETKDTKSR, which protein stability index is on record?
Answer: 1.62

Question: With AEVVKIRDSFSNQNLETKDTKSR as the variant, how does the protein stability index read?
Answer: 2.17

Question: With AEVVKIRDSFSNQNMETKDTKSR as the variant, how does the protein stability index read?
Answer: 1.86

Question: With AEVVKIRDSFSNQNRETKDTKSR as the variant, how does the protein stability index read?
Answer: 1.67

Question: For AEVVKIRDSFSNQNFETKDTKSR, which protein stability index is on record?
Answer: 2.36

Question: Which protein stability index does the source give for AEVVKIRDSFSNQNGETKDTKSR here?
Answer: 4.39

Question: For AEVVKIRSSFSNQNTETKDTKSR, which protein stability index is on record?
Answer: 1.8

Question: With AEVVKIRASFSNQNTETKDTKSR as the variant, how does the protein stability index read?
Answer: 2.53

Question: Which protein stability index does the source give for AEVVKIRKSFSNQNTETKDTKSR here?
Answer: 2.08

Question: Which protein stability index does the source give for AEVVKIRDSFSNQNTETDDTKSR here?
Answer: 1.39

Question: With AEVVKIRDSFSNQNTETQDTKSR as the variant, how does the protein stability index read?
Answer: 1.84
